Here are results for two molecules from article PMC7432781, “An EPR Study on the Interaction between the Cu(I) Metal Binding Domains of ATP7B and the Atox1 Metallochaperone” (International Journal of Molecular Sciences, 2020).

*: point of attachment. MTSL = MTSL nitroxide spin label (R1), CC1(C)C=C(CS*)C(C)(C)N1[O]

The assay addresses T1, ATP7B metal binding domains 4-6, spin-labeled (human, UniProt P35670 356-633, MTSL nitroxide spin label (R1) on C358, C431 and C490).
T1 construct: No residue limits are printed; the printed primers translate to a start at GTCSTTL and an end at FHASLAQ followed by a stop codon; Printed mass 29.2 kDa; also called MBD4-6; ATP7B 4-6 domains; source: E. coli Origami 2, purified (chitin bead column, intein self-cleavage with DTT)
T1 sequence (looked up): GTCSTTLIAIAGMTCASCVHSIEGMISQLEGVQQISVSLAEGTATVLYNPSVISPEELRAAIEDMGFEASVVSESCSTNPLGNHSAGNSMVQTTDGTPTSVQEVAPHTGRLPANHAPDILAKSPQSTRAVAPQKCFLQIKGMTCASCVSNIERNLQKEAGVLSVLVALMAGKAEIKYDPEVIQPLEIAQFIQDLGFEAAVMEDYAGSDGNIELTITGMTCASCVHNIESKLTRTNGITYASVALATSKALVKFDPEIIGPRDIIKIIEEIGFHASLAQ
Nature of the assay: CW-EPR of spin-labeled proteins; X-band, room temperature (292 ± 5 K), in solution; Atox1 or sl-Atox1 added to spin-labeled MBDs at 1:1 (Atox1:MBD); with and without Cu(I); spin-labeled protein 0.01-0.03 mM. Particulars: both partners purified.

B1: Atox1 metallochaperone, wild-type, non spin-labeled (natural protein, human)
chain: MPKHEFSVDMTCGGCAEAVSRVLNKLGGVKYDIDLPNKKVCIESEHSMDTLLATLKKTGKTVSYLGLE
notes: Atox1 copper metallochaperone, human, wild type
On to B1, for which the binding result is “binds”.

B2: Atox1 metallochaperone, spin-labeled at C41 (natural protein, human)
chain: MPKHEFSVDMTCGGCAEAVSRVLNKLGGVKYDIDLPNKKVC(MTSL)IESEHSMDTLLATLKKTGKTVSYLGLE
notes: Atox1 copper metallochaperone, human; also called sl-Atox1; spin-labeled Atox1
Regarding B2, the binding result is “binds”.
